This assay has as its target CD46 (UniProt P15529). Description: Kd, method not stated (column head 'Kd (Oleks)').
Sequence of UniProt P15529 (P15529 35-343 limits assumed): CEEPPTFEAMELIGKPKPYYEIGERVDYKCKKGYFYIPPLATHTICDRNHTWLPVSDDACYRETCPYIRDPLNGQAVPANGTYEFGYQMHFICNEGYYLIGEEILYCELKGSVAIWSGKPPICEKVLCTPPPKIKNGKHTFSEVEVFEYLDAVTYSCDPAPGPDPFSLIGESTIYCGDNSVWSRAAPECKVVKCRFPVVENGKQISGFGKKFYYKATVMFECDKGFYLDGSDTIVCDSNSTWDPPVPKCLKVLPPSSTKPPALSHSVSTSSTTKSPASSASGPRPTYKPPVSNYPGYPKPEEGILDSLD

Regarding Ad35 knob A8: Ile192Val Ile256Val, the Kd (usually the concentration at which binding is half-saturated) turned out to be 13.7 nM. That is a double-digit nanomolar value.
